Results reported in patent US20250313634A1 (WUXI BIOLOGICS SHANGHAI, published 2025).

What was measured:
Experiment in all cases: capture ELISA on coated 1.14.4; relative to silent alanine substitutions
[1] = molecular target: T1, hPD-L1_ECD.His point mutant V23A (human, UniProt Q9NZQ7 19-238)
T1 construct: extracellular domain
Summary of the method: (§1)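 Capture ELISA in which supernatant containing quantified PD-L1 alanine mutant was detected with HRP anti-His antibody. Absorbance was normalized to the average of control mutants. Epitope residues were called at binding fold change <0.55.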

[2] = molecular target: T2, hPD-L1_ECD.His point mutant L27A (human, UniProt Q9NZQ7 19-238)
T2 construct: extracellular domain
Summary of the method: as §1

[3] = molecular target: T3, hPD-L1_ECD.His point mutant S80A (human, UniProt Q9NZQ7 19-238)
T3 construct: extracellular domain
Summary of the method: as §1

[4] = molecular target: T4, hPD-L1_ECD.His point mutant D73A (human, UniProt Q9NZQ7 19-238)
T4 construct: extracellular domain
Summary of the method: as §1

[5] = molecular target: T5, hPD-L1_ECD.His point mutant Q100A (human, UniProt Q9NZQ7 19-238)
T5 construct: extracellular domain
Summary of the method: as §1

[6] = molecular target: T6, hPD-L1_ECD.His point mutant V143A (human, UniProt Q9NZQ7 19-238)
T6 construct: extracellular domain
Summary of the method: as §1

[7] = molecular target: T7, hPD-L1_ECD.His point mutant N135A (human, UniProt Q9NZQ7 19-238)
T7 construct: extracellular domain
Summary of the method: as §1

[8] = molecular target: T8, hPD-L1_ECD.His point mutant Q47A (human, UniProt Q9NZQ7 19-238)
T8 construct: extracellular domain
Summary of the method: as §1

[9] = molecular target: T9, hPD-L1_ECD.His point mutant K41A (human, UniProt Q9NZQ7 19-238)
T9 construct: extracellular domain
Summary of the method: as §1

[10] = molecular target: T10, hPD-L1_ECD.His point mutant P161A (human, UniProt Q9NZQ7 19-238)
T10 construct: extracellular domain
Summary of the method: as §1

[11] = molecular target: T11, hPD-L1_ECD.His point mutant P216A (human, UniProt Q9NZQ7 19-238)
T11 construct: extracellular domain
Summary of the method: as §1

[12] = molecular target: T12, hPD-L1_ECD.His point mutant G70A (human, UniProt Q9NZQ7 19-238)
T12 construct: extracellular domain
Summary of the method: as §1

[13] = molecular target: T13, hPD-L1_ECD.His point mutant G110A (human, UniProt Q9NZQ7 19-238)
T13 construct: extracellular domain
Summary of the method: as §1

[14] = molecular target: T14, hPD-L1_ECD.His point mutant V111A (human, UniProt Q9NZQ7 19-238)
T14 construct: extracellular domain
Summary of the method: as §1

[15] = molecular target: T15, hPD-L1_ECD.His point mutant T201A (human, UniProt Q9NZQ7 19-238)
T15 construct: extracellular domain
Summary of the method: as §1

[16] = molecular target: T16, hPD-L1_ECD.His point mutant V21A (human, UniProt Q9NZQ7 19-238)
T16 construct: extracellular domain
Summary of the method: as §1

[17] = molecular target: T17, hPD-L1_ECD.His point mutant G119A (human, UniProt Q9NZQ7 19-238)
T17 construct: extracellular domain
Summary of the method: as §1

[18] = molecular target: T18, hPD-L1_ECD.His point mutant Y56A (human, UniProt Q9NZQ7 19-238)
T18 construct: extracellular domain
Summary of the method: as §1

[19] = molecular target: T19, hPD-L1_ECD.His point mutant N236A (human, UniProt Q9NZQ7 19-238)
T19 construct: extracellular domain
Summary of the method: as §1

[20] = molecular target: T20, hPD-L1_ECD.His point mutant D90A (human, UniProt Q9NZQ7 19-238)
T20 construct: extracellular domain
Summary of the method: as §1

[21] = molecular target: T21, hPD-L1_ECD.His point mutant D103A (human, UniProt Q9NZQ7 19-238)
T21 construct: extracellular domain
Summary of the method: as §1

[22] = molecular target: T22, hPD-L1_ECD.His point mutant I206A (human, UniProt Q9NZQ7 19-238)
T22 construct: extracellular domain
Summary of the method: as §1

[23] = molecular target: T23, hPD-L1_ECD.His point mutant G120A (human, UniProt Q9NZQ7 19-238)
T23 construct: extracellular domain
Summary of the method: as §1

[24] = molecular target: T24, hPD-L1_ECD.His point mutant Q91A (human, UniProt Q9NZQ7 19-238)
T24 construct: extracellular domain
Summary of the method: as §1

[25] = molecular target: T25, hPD-L1_ECD.His point mutant P24A (human, UniProt Q9NZQ7 19-238)
T25 construct: extracellular domain
Summary of the method: as §1

[26] = molecular target: T26, hPD-L1_ECD.His point mutant S117A (human, UniProt Q9NZQ7 19-238)
T26 construct: extracellular domain
Summary of the method: as §1

T18 sequence (Q9NZQ7 19-238 Y56A): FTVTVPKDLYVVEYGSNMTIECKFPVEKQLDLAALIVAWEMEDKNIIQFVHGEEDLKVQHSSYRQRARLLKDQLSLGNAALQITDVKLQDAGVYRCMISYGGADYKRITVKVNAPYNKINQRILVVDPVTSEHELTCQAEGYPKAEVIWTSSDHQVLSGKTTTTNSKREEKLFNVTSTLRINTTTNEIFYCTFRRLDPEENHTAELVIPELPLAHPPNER
T6 sequence (Q9NZQ7 19-238 V143A): as the sequence (Q9NZQ7 19-238 Y56A) above, with A38Y, V125A counted along it
T5 sequence (Q9NZQ7 19-238 Q100A): as the sequence (Q9NZQ7 19-238 Y56A) above, with A38Y, Q82A counted along it
T10 sequence (Q9NZQ7 19-238 P161A): as the sequence (Q9NZQ7 19-238 Y56A) above, with A38Y, P143A counted along it
T26 sequence (Q9NZQ7 19-238 S117A): as the sequence (Q9NZQ7 19-238 Y56A) above, with A38Y, S99A counted along it
T21 sequence (Q9NZQ7 19-238 D103A): as the sequence (Q9NZQ7 19-238 Y56A) above, with A38Y, D85A counted along it
T12 sequence (Q9NZQ7 19-238 G70A): as the sequence (Q9NZQ7 19-238 Y56A) above, with A38Y, G52A counted along it
T1 sequence (Q9NZQ7 19-238 V23A): as the sequence (Q9NZQ7 19-238 Y56A) above, with V5A, A38Y counted along it
T20 sequence (Q9NZQ7 19-238 D90A): as the sequence (Q9NZQ7 19-238 Y56A) above, with A38Y, D72A counted along it
T16 sequence (Q9NZQ7 19-238 V21A): as the sequence (Q9NZQ7 19-238 Y56A) above, with V3A, A38Y counted along it
T23 sequence (Q9NZQ7 19-238 G120A): as the sequence (Q9NZQ7 19-238 Y56A) above, with A38Y, G102A counted along it
T25 sequence (Q9NZQ7 19-238 P24A): as the sequence (Q9NZQ7 19-238 Y56A) above, with P6A, A38Y counted along it
T19 sequence (Q9NZQ7 19-238 N236A): as the sequence (Q9NZQ7 19-238 Y56A) above, with A38Y, N218A counted along it
T14 sequence (Q9NZQ7 19-238 V111A): as the sequence (Q9NZQ7 19-238 Y56A) above, with A38Y, V93A counted along it
T17 sequence (Q9NZQ7 19-238 G119A): as the sequence (Q9NZQ7 19-238 Y56A) above, with A38Y, G101A counted along it
T8 sequence (Q9NZQ7 19-238 Q47A): as the sequence (Q9NZQ7 19-238 Y56A) above, with Q29A, A38Y counted along it
T7 sequence (Q9NZQ7 19-238 N135A): as the sequence (Q9NZQ7 19-238 Y56A) above, with A38Y, N117A counted along it
T24 sequence (Q9NZQ7 19-238 Q91A): as the sequence (Q9NZQ7 19-238 Y56A) above, with A38Y, Q73A counted along it
T13 sequence (Q9NZQ7 19-238 G110A): as the sequence (Q9NZQ7 19-238 Y56A) above, with A38Y, G92A counted along it
T3 sequence (Q9NZQ7 19-238 S80A): as the sequence (Q9NZQ7 19-238 Y56A) above, with A38Y, S62A counted along it
T11 sequence (Q9NZQ7 19-238 P216A): as the sequence (Q9NZQ7 19-238 Y56A) above, with A38Y, P198A counted along it
T4 sequence (Q9NZQ7 19-238 D73A): as the sequence (Q9NZQ7 19-238 Y56A) above, with A38Y, D55A counted along it
T9 sequence (Q9NZQ7 19-238 K41A): as the sequence (Q9NZQ7 19-238 Y56A) above, with K23A, A38Y counted along it
T2 sequence (Q9NZQ7 19-238 L27A): as the sequence (Q9NZQ7 19-238 Y56A) above, with L9A, A38Y counted along it
T22 sequence (Q9NZQ7 19-238 I206A): as the sequence (Q9NZQ7 19-238 Y56A) above, with A38Y, I188A counted along it
T15 sequence (Q9NZQ7 19-238 T201A): as the sequence (Q9NZQ7 19-238 Y56A) above, with A38Y, T183A counted along it

B1: 1.14.4 (antibody, V domains shown)
VH: EVQLLESGGGLVQPGGSLRLSCAASGFTFSSYAMSWVRQAPGKGLEWVSGISGSGGFTYYADSVKGRFTISRDNSKNTLYLQMNSLRAEDTAVYYCAKPPRGYNYGPFDYWGQGTLVTVSS
VL: SYVLTQPPSVSVAPGQTARITCGGNNIGSKSVHWYQQKPGQAPVLVVYDDSDRPSGIPERFSGSNSGNTATLTISRVEAGDEADYYCQVWDSSSDHVVFGGGTKLTVL
notes: Fully human monoclonal antibody with a human constant region of IgG4 isotype
For B1, the fold change [1] was 0.948 fold, the fold change [2] was 0.949 fold and the fold change [3] was 0.974 fold. For the same binder, the fold change [4] was 0.988 fold, the fold change [5] was 1.01 fold and the fold change [6] was 1.02 fold. For the same binder, the fold change [7] was 1.03 fold, the fold change [8] was 1.05 fold and the fold change [9] was 1.07 fold. For the same binder, the fold change [10] was 0.332 fold, the fold change [11] was 0.563 fold and the fold change [12] was 0.602 fold. It also gave a fold change [13] of 0.632 fold, a fold change [14] of 0.723 fold and a fold change [15] of 0.781 fold. For the same binder, the fold change [16] was 0.803 fold, the fold change [17] was 0.825 fold and the fold change [18] was 0.84 fold. For the same binder, the fold change [19] was 0.848 fold, the fold change [20] was 0.858 fold and the fold change [21] was 0.863 fold. It also gave a fold change [22] of 0.876 fold, a fold change [23] of 0.895 fold and a fold change [24] of 0.906 fold. It also gave a fold change [25] of 0.907 fold and a fold change [26] of 0.935 fold.
